Legend:
Assay type in all cases: biochemical
[1] = HTP-analysis of yeast culture supernatants, no challenge (MUGal hydrolysis); details: activity of the variant/activity of Rd3BB (SEQ ID NO: 13), yeast culture supernatant
Procedure, shortened: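 Activity read as 4-methylumbelliferyl α-D-galactopyranoside hydrolysis: fluorescence (355/448 nm) after sodium carbonate stop, following 30-180 min at 37° C with 2 mM MUGal stock at pH 4.6–4.8. Enzyme source is unchallenged culture supernatant of INVSc1 yeast expressing GLA variants, grown 66-84 h at 30° C.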

[2] = HTP-analysis of supernatants pretreated with acid (MUGal hydrolysis); details: challenge at pH 4.0; activity of the variant/activity of Rd3BB (SEQ ID NO: 13); yeast culture supernatant
Procedure, shortened: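 Supernatants from INVSc1 yeast secreting GLA variants were challenged at 37° C. for 1-3 h in McIlvaine buffer at pH 3.3-4.3. Residual activity was then measured on 4 mM MUGal substrate stock at pH 4.8 with citrate buffer pH 4.3, over 30-180 min at 37° C. Reactions were quenched with sodium carbonate and read by fluorescence (Ex 355/Em 448 nm).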

[3] = HTP-analysis of supernatants pretreated with bovine serum (MUGal hydrolysis); details: activity of the variant/activity of Rd3BB (SEQ ID NO: 13), yeast culture supernatant
Procedure, shortened: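 Yeast INVSc1 culture supernatants containing secreted GLA variants were mixed with bovine serum (20:80) and held 1 h at 37° C. Serum-treated samples then reacted with MUGal (4 mM stock) in citrate/McIlvaine buffer (pH 4.3/4.8) for 180 min at 37° C., were quenched with sodium carbonate, and read by fluorescence (Ex 355, Em 448 nm).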

[4] = HTP-analysis of supernatants pretreated with base (MUGal hydrolysis); details: challenge at pH 8.2; activity of the variant/activity of Rd3BB (SEQ ID NO: 13); yeast culture supernatant
Procedure, shortened: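 GLA variants secreted from yeast INVSc1; culture supernatants pre-incubated with McIlvaine buffer pH 7.0–8.2 or 200 mM bicarbonate pH 9.1–9.7 at 37° C. for 1–18 h. Residual activity: MUGal (4 mM stock) hydrolysis at pH 4.3–4.8, 37° C., 30–180 min, carbonate quench; fluorescence Ex 355/Em 448 nm.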

| Molecule | Relative Activity of GLA Variants After No Challenge (NC) [1] | Relative Activity of GLA Variants After Challenge at pH 4.0 [2] | Relative Activity of GLA Variants After Challenge with Serum [3] | Relative Activity of GLA Variants After Challenge at pH 8.2 [4] |
| --- | --- | --- | --- | --- |
| 341 (protein, Synthetic Polypeptide sequence of Variant No. 341 of mature Human GLA) LDNGLARTPTMGWLHWERFMCNLDCQEEPDSCISEKLFMEMAERMVSEGWKDAGYEYLCIDDCWMAPQRDSEGRLQADPQRFPHGIRQLANYVHSIGLKLGIYADVGNKTCAGFPGSFGYYDIDAQTFADWGVDLLKFDGCYCDSLENLADGYKHMSLALNRTGRSIVYSCEWPLYMWPFQKPNYTEIRQYCNHWRNFADIDDSWASIKSILDWTSRNQERIVDVAGPGGWNDPDMLVIGNFGLSWDQQVTQMALWAIMAAPLFMSNDLRHISPQAKALLQDKDVIAINQDPLGKQGYQLRQGDNFEVWERPLSGLAWAVAIINRQEIGGPRSYTIAVASLGKGVACNPACFITQLLPVKRKLGFYNWSSRLKSHINPTGTVLLQLENTMQMSLKDLL | − (− = <0.5 relative activity to Rd3BB (SEQ ID NO: 13)) | + (+ = 0.5 to 1.5 relative activity over Rd3BB (SEQ ID NO: 13)) | + (+ = 0.5 to 1.5 relative activity over Rd3BB (SEQ ID NO: 13)) | + (+ = 0.5 to 1.5 relative activity over Rd3BB (SEQ ID NO: 13)) |
| 347 (protein, Synthetic Polypeptide sequence of Variant No. 347 of mature Human GLA) LDNGLARTPTMGWLHWERFMCNLDCQEEPDSCISEKLFMEMAERMVSEGWKDAGYEYLCIDDCWMAPQRDSEGRLQADPQRFPHGIRQLANYVHSIGLKLGIYADVGNKTCAGFPGSFGYYDIDAQTFADWGVDLLKFDGCYCDSLENLADGYKHMSLALNRTGRSIVYSCEWPLYMWPFQKPNYTEIRQYCNHWRNFADIDDSWASIKSILDWTSFNQERIVDVAGPGGWNDPDMLVIGNFGLSWNQQVTQMALWAIMAAPLFMSNDLRHISPQAKALLQDKDVIAINQDPLGKQGYQLRQGDNFEVWERPLSGLAWAVAIINRQEIGGPRSYTIPVASLGKGVACNPACFITQLLPVKRKLGFYNWSSRLKSHINPTGTVLLQLENTMQMSLKDLL | − (− = <0.5 relative activity to Rd3BB (SEQ ID NO: 13)) | − (− = <0.5 relative activity to Rd3BB (SEQ ID NO: 13)) | − (− = <0.5 relative activity to Rd3BB (SEQ ID NO: 13)) | − (− = <0.5 relative activity to Rd3BB (SEQ ID NO: 13)) |
| 343 (protein, Synthetic Polypeptide sequence of Variant No. 343 of mature Human GLA) LDNGLARTPTMGWLHWERFMCNLDCQEEPDSCISEKLFMEMAERMVSEGWKDAGYEYLCIDDCWMAPQRDSEGRLQADPQRFPHGIRQLANYVHSIGLKLGIYADVGNKTCAGFPGSFGYYDIDAQTFADWGVDLLKFDGCYCDSLENLADGYKHMSLALNRTGRSIVYSCEWPLYMWPFQKPNYTEIRQYCNHWRNFADIDDSWASIKSILDWTSRNQERIVDVAGPGGWNDPDMLVIGNFGLSWDQQVTQMALWAIMAAPLFMSNDLRHISPQAKALLQDKDVIAINQDPLGKQGYQLRKGDNFEVWERPLSGLAWAVAIINRQEIGGPRSYTIAVASLGKGVACNPACFITQLLPVKRKLGFYNWSSRLKSHINPTGTVLLQLENTMQMSLKDLL | + (+ = 0.5 to 1.5 relative activity over Rd3BB (SEQ ID NO: 13)) | + (+ = 0.5 to 1.5 relative activity over Rd3BB (SEQ ID NO: 13)) | + (+ = 0.5 to 1.5 relative activity over Rd3BB (SEQ ID NO: 13)) | + (+ = 0.5 to 1.5 relative activity over Rd3BB (SEQ ID NO: 13)) |
| 344 (protein, Synthetic Polypeptide sequence of Variant No. 344 of mature Human GLA) LDNGLARTPTMGWLHWERFMCNLDCQEEPDSCISEKLFMEMAERMVSEGWKDAGYEYLCIDDCWMAPQRDSEGRLQADPQRFPHGIRQLANYVHSIGLKLGIYADVGNKTCAGFPGSFGYYDIDAQTFADWGVDLLKFDGCYCDSLENLADGYKHMSLALNRTGRSIVYSCEWPLYMWPFQKPNYTEIRQYCNHWRNFADIDDSWASIKSILDWTSRNQERIVDVAGPGGWNDPDMLVIGNFGLSWDQQVTQMALWAIMAAPLFMSNDLRHISPQAKALLQDKDVIAINQDPLGKQGYQLRKGDNFEVWERPLSGLAWAVAIINRQEIGGPRSYTIAVASLGKGVACNPACFITQLLPVKRQLGFYNWTSRLKSHINPTGTVLLQLENTMQMSLKDLL | + (+ = 0.5 to 1.5 relative activity over Rd3BB (SEQ ID NO: 13)) | + (+ = 0.5 to 1.5 relative activity over Rd3BB (SEQ ID NO: 13)) | ++ (++ = >1.5 to 2.5 relative activity over Rd3BB (SEQ ID NO: 13)) | + (+ = 0.5 to 1.5 relative activity over Rd3BB (SEQ ID NO: 13)) |
| 342 (protein, Synthetic Polypeptide sequence of Variant No. 342 of mature Human GLA) LDNGLARTPTMGWLHWERFMCNLDCQEEPDSCISEKLFMEMAERMVSEGWKDAGYEYLCIDDCWMAPQRDSEGRLQADPQRFPHGIRQLANYVHSIGLKLGIYADVGNKTCAGFPGSFGYYDIDAQTFADWGVDLLKFDGCYCDSLENLADGYKHMSLALNRTGRSIVYSCEWPLYMWPFQKPNYTEIRQYCNHWRNFADIDDSWASIKSILDWTSRNQERIVDVAGPGGWNDPDMLVIGNFGLSWDQQVTQMALWAIMAAPLFMSNDLRHISPQAKALLQDKDVIAINQDPLGKQGYQLRKGDNFEVWERPLSGDAWAVAIINRQEIGGPRSYTIPVASLGKGVACNPACFITQLLPVKRKLGFYNWTSRLKSHINPTGTVLLQLENTMQMSLKDLL | ++ (++ = >1.5 to 2.5 relative activity over Rd3BB (SEQ ID NO: 13)) | +++ (+++ = >2.5 relative activity over Rd3BB (SEQ ID NO: 13)) | +++ (+++ = >2.5 relative activity over Rd3BB (SEQ ID NO: 13)) | +++ (+++ = >2.5 relative activity over Rd3BB (SEQ ID NO: 13)) |
| 346 (protein, Synthetic Polypeptide sequence of Variant No. 346 of mature Human GLA) LDNGLARTPTMGWLHWERFMCNLDCQEEPDSCISEKLFMEMAERMVSEGWKDAGYEYLCIDDCWMAPQRDSEGRLQADPQRFPHGIRQLANYVHSIGLKLGIYADVGNKTCAGFPGSFGYYDIDAQTFADWGVDLLKFDGCYCDSLENLADGYKHMSLALNRTGRSIVYSCEWPLYMWPFQKPNYTEIRQYCNHWRNFADIDDSWASIKSILDWTSRNQERIVDVAGPGGWNDPDMLVIGNFGLSWNQQVTQMALWAIMAAPLFMSNDLRHISPQAKALLQDKDVIAINQDPLGKQGYQLRKGDNFEVWERPLSGLAWAVAIINRQEIGGPRSYTIAVASLGKGVACNPGCFITQLLPVKRQLGFYNWSSRLKSHINPTGTVLLQLENTMQMSLKDLL | + (+ = 0.5 to 1.5 relative activity over Rd3BB (SEQ ID NO: 13)) | + (+ = 0.5 to 1.5 relative activity over Rd3BB (SEQ ID NO: 13)) | + (+ = 0.5 to 1.5 relative activity over Rd3BB (SEQ ID NO: 13)) | ++ (++ = >1.5 to 2.5 relative activity over Rd3BB (SEQ ID NO: 13)) |
| 345 (protein, Synthetic Polypeptide sequence of Variant No. 345 of mature Human GLA) LDNGLARTPTMGWLHWERFMCNLDCQEEPDSCISEKLFMEMAERMVSEGWKDAGYEYLCIDDCWMAPQRDSEGRLQADPQRFPHGIRQLANYVHSIGLKLGIYADVGNKTCAGFPGSFGYYDIDAQTFADWGVDLLKFDGCYCDSLENLADGYKHMSLALNRTGRSIVYSCEWPLYMWPFQKPNYTEIRQYCNHWRNFADIDDSWASIKSILDWTSRNPERIVDVAGPGGWNDPDMLVIGNFGLSWDQQVTQKALWAIMAAPLFMFNDLRHISPQAKALLQDKEVIAINPDPFGKQGYQLRKGDNFEGWERPLFGLAWAVAIINRQEIGGPRSYTIPVASLGEGVACNPACFITQLLPVKRKLGFYNWTSRLKSHINPTGTVLLQLENTMQMSLKDLL | + (+ = 0.5 to 1.5 relative activity over Rd3BB (SEQ ID NO: 13)) | ++ (++ = >1.5 to 2.5 relative activity over Rd3BB (SEQ ID NO: 13)) | + (+ = 0.5 to 1.5 relative activity over Rd3BB (SEQ ID NO: 13)) | +++ (+++ = >2.5 relative activity over Rd3BB (SEQ ID NO: 13)) |

— patent US11278600B2, “Human alpha-galactosidase variants” (Codexis, Inc., priority 2014, dated 2022)
